The results in this text go back to patent US20260337282 (published 2026).

Where a chain is given by its changes, count along the chain named.

First the molecules themselves.
T1: mouse CCR8 (mouse)
T1 chain: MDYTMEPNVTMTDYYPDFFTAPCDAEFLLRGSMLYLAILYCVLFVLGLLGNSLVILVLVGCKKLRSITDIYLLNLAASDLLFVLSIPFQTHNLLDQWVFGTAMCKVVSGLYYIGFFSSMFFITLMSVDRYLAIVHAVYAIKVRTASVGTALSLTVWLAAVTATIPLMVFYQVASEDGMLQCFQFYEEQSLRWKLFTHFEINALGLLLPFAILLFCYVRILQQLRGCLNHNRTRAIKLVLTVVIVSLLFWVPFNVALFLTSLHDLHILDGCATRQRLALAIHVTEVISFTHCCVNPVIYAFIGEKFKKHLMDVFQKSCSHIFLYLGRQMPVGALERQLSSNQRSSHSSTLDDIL

B1: 11F5-SG-11F5-AG (antibody, V domains shown)
VH: EVQLVESGGGVVQPGRSLRLSCAASGFTFSSYVVHWVRQAPGKGLEWVAVISYSGDNKFYADSVKGRFTISRDNSKNTLYLQMNSLRTEDTAVYYCARGRNYYYYYGLDVWGQGTTVTVSS
VL: DIVMTQTPLSLSVTPGQPASISCKSSQSLLYSAGKTYLYWYLQKAGQPPQLLIYEVSNRFSGVPDRFSGSGSGTDFTLKISRVEAEDVGVFYCMQSLKVPPTFGQGTKVDIK
B2: 11F5-DA-11F5-AG (antibody, V domains shown)
VH: B1 VH with S54D, G55A
VL: B1 VL
B3: 11F8-SG-11F8-DA (antibody, V domains shown)
VH: QVQLVESGGGVVQPGRSLRLSCAASGFTFSTYVMHWVRQAPGKGLEWVAVISYSGNNKYYADSVKGRFIISRDNSKNTLFLQMNSLRGEDTAVYYCARGRSYVNYYGLDVWGQGTTVTVSS
VL: DIVMTQTPLSLSVTPGQPASISCKSSQSLLYSDAKTYLYWYLQKPGQPPHLLIYEVSNRFSGVPKRFSGSGSGTDFTLKISRVEAEDVGVYYCMQSVKIPLTFGGGTKVEIK
B4: 11B12-AG-11B12-DA (antibody, V domains shown)
VH: QVQLVESGGGVVQPGRSLRLSCAASGFSFSSYVMHWVRQAPGKGLEWVAVISYAGSDKYYADSVKGRFTISRDNSKNTLFLQMNSLRPEDTAVYYCARGRGYRYGQSYYYGMDVWGQGTTVTVSS
VL: B3 VL with H50Q, L51I, Y54F, K65D, V97I, I99L
B5: 11B12-11F8-SG (antibody, V domains shown)
VH: B4 VH with A54D
VL: B3 VL with D33S, A34G
B6: 11B12-SG-11B12-DA (antibody, V domains shown)
VH: B4 VH with A54S
VL: B3 VL with H50Q, L51I, Y54F, K65D, V97I, I99L
B7: 11F8-11B12 (antibody, V domains shown)
VH: B3 VH with S54D
VL: B3 VL with A34G, H50Q, L51I, Y54F, K65D, V97I, I99L
B8: 11F8-DA-11F8-DA (antibody, V domains shown)
VH: B3 VH with S54D, G55A
VL: B3 VL
B9: 11F8-AG-11F8-DA (antibody, V domains shown)
VH: B3 VH with S54A
VL: B3 VL
B10: 11F5-SG-11F5-DA (antibody, V domains shown)
VH: B1 VH
VL: B1 VL with A33D, G34A
B11: 11F8-SG-11F8-AG (antibody, V domains shown)
VH: B3 VH
VL: B3 VL with D33A, A34G
B12: 11B12-SG-11B12-AG (antibody, V domains shown)
VH: B4 VH with A54S
VL: B3 VL with D33A, A34G, H50Q, L51I, Y54F, K65D, V97I, I99L
B13: 11F8-AG-11F8-AG (antibody, V domains shown)
VH: B3 VH with S54A
VL: B3 VL with D33A, A34G
B14: 11F5-DA-11F5-DA (antibody, V domains shown)
VH: B1 VH with S54D, G55A
VL: B1 VL with A33D, G34A
B15: 11B12-SG-11F8-SG (antibody, V domains shown)
VH: B4 VH with A54S
VL: B3 VL with D33S, A34G
B16: 11F8-11F5 (antibody, V domains shown)
VH: B3 VH with S54D
VL: B1 VL with A33D
B17: 11F8-AG-11F8-SG (antibody, V domains shown)
VH: B3 VH with S54A
VL: B3 VL with D33S, A34G
B18: 11B12-11F5 (antibody, V domains shown)
VH: B4 VH with A54D
VL: B1 VL with A33D
B19: 11F5-11F8 (antibody, V domains shown)
VH: B1 VH with S54D
VL: B3 VL with A34G
B20: 11B12-SG-11B12-SG (antibody, V domains shown)
VH: B4 VH with A54S
VL: B3 VL with D33S, A34G, H50Q, L51I, Y54F, K65D, V97I, I99L
B21: 11B12-AG-11B12-SG (antibody, V domains shown)
VH: B4 VH
VL: B3 VL with D33S, A34G, H50Q, L51I, Y54F, K65D, V97I, I99L
B22: 11F5-11B12 (antibody, V domains shown)
VH: B1 VH with S54D
VL: B3 VL with A34G, H50Q, L51I, Y54F, K65D, V97I, I99L
B23: 11F5-DA-11F5-SG (antibody, V domains shown)
VH: B1 VH with S54D, G55A
VL: B1 VL with A33S
B24: 11F8-DA-11F8-AG (antibody, V domains shown)
VH: B3 VH with S54D, G55A
VL: B3 VL with D33A, A34G
B25: 11F8-DA-11F8-SG (antibody, V domains shown)
VH: B3 VH with S54D, G55A
VL: B3 VL with D33S, A34G
B26: 11F8-SG-11F8-SG (antibody, V domains shown)
VH: B3 VH
VL: B3 VL with D33S, A34G

One experiment has as its target T1, mouse CCR8. The experiment is described as follows: FACS. In general terms: Flow cytometry measures light scatter and fluorescence of single cells or particles in a stream.
For B1, the EC50 came out at 0.092 µg/mL.

B2 returned an EC50 of 0.463 µg/mL.

In the case of B3, the concentration for a half-maximal effect (EC50) was 0.173 µg/mL.

As for B4, the EC50 turned out to be 0.074 µg/mL.

As for B5, the EC50 was 0.12 µg/mL.

In turn, B6 showed an EC50 of 0.059 µg/mL.

For the molecule B7, the 50% effective concentration (EC50) turned out to be 0.155 µg/mL.

B8 returned a concentration for a half-maximal effect (EC50) of 0.128 µg/mL.

Take B9: a half-maximal effect (EC50) was put at 0.171 µg/mL.

Regarding B10, the midpoint of the response, the EC50, lay at 0.138 µg/mL.

Turning to B11, a half-maximal response (EC50) required 0.218 µg/mL.

Consider B12, for which the EC50 amounted to 0.042 µg/mL.

For B13, the EC50 stood at 0.148 µg/mL.

B14 gave a concentration for a half-maximal effect (EC50) of 0.253 µg/mL.

Molecule B15 gave an EC50 of 0.099 µg/mL.

In turn, B16 returned an EC50 of 0.116 µg/mL.

B17 had an EC50 of 0.149 µg/mL.

Consider B18, for which the EC50 stood at 0.171 µg/mL.

B19 gave a concentration giving a half-maximal response (EC50) of 0.184 µg/mL.

Molecule B20 registered an EC50 of 0.041 µg/mL.

The molecule B21 showed a concentration for a half-maximal effect (EC50) of 0.038 µg/mL.

Take B22: the midpoint of the response, the EC50, lay at 0.163 µg/mL.

In another experiment the target is human CCR8 (human). The experiment is described as follows: FACS.
human CCR8 (human), sequence (chain, as listed by the source): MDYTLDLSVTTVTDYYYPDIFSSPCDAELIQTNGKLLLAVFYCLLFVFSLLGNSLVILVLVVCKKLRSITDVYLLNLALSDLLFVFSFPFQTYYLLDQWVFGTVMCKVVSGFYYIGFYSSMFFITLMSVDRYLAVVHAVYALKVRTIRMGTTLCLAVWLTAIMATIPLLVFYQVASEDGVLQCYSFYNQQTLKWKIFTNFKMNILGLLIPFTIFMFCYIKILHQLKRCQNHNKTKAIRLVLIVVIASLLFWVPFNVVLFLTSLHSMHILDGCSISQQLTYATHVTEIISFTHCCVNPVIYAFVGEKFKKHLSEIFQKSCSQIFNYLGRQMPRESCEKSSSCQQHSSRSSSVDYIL
In turn, B1 came in with an EC50 of 0.069 µg/mL.

Turning to B23, a half-maximal response (EC50) required 0.124 µg/mL.

B3 gave a concentration for a half-maximal effect (EC50) of 0.049 µg/mL.

Regarding B4, the midpoint of the response, the EC50, lay at 0.073 µg/mL.

In the case of B5, the midpoint of the response, the EC50, lay at 0.165 µg/mL.

Consider B6, for which the response was half-maximal at 0.064 µg/mL (EC50).

B7 showed an EC50 of 0.075 µg/mL.

B8 showed an EC50 of 0.222 µg/mL.

With B9, the midpoint of the response, the EC50, lay at 0.12 µg/mL.

The molecule B10 showed a half-maximal effective concentration (EC50) of 0.15 µg/mL.

B11 gave an EC50 of 0.05 µg/mL.

Consider B12, for which the EC50 is 0.047 µg/mL.

With B13, a half-maximal response (EC50) required 0.033 µg/mL.

Regarding B14, the 50% effective concentration (EC50) was determined as 0.392 µg/mL.

B15 showed an EC50 of 0.009 µg/mL.

For B16, a half-maximal response (EC50) required 0.137 µg/mL.

B18 came in with an EC50 of 0.298 µg/mL.

B19 displayed a half-maximal effective concentration (EC50) of 0.162 µg/mL.

The molecule B20 registered a concentration giving a half-maximal response (EC50) of 0.048 µg/mL.

The molecule B24 displayed an EC50 of 0.076 µg/mL.

B21 registered an EC50 of 0.043 µg/mL.

The molecule B22 came in with an EC50 of 0.132 µg/mL.

Regarding B25, it took 0.154 µg/mL to reach a half-maximal effect (EC50).

The target in the next experiment is human CCR8 (human). The experiment is described as follows: FACS. This is another data set of the same source.
Take B26: the concentration for a half-maximal effect (EC50) amounted to 0.015 µg/mL.

A further experiment deals with T1, mouse CCR8. The experiment is described as follows: FACS. This is another data set of the same source.
Consider B26, for which a half-maximal response (EC50) required 0.053 µg/mL.

In general, EC50 refers to the concentration that produces a half-maximal response. Lower therefore signals an effect from little substance.
